Assay results as given in the nanobody polyreactivity screen of Harvey et al. (2022).

Test: yeast display, Sf9 membrane polyspecificity reagent, FACS + sequencing; frameworks hold sequencing errors
Outline: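 Nanobodies came from a synthetic yeast display library in Saccharomyces cerevisiae BJ5465, induced with galactose for 36–48 hours and stained for 1 hour at 4 °C with 10% biotinylated, detergent-solubilized Sf9 membrane reagent. Cells were enriched on streptavidin microbeads and then FACS-sorted, with low and high (top ~1%) gates set on anti-HA fluorescence for expression and streptavidin fluorescence for reagent binding. Each polyreactivity label reflects the gate a clone came from. Genes were amplified by colony PCR, sequenced by MiSeq 2 × 250 and filtered by CDR length.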

Row | Sequence | polyreactivity (PSR sort gate)
1 | QVQLVESGGGLVQAGGSLRLSCAASGSTFPRNDMGWYRQAPGKERELVAAISRGGSTNNADSVKGRFTISRDNAKNTVYLQMNSLKPEDTAVYYCAAQIFESAYGMDYWGQGTQVTVSS | low polyreactivity
2 | QVQLVESGGGLVQAGGSLRLSCAASGFIFSTNAMGWYRQAPGKERELVAVINGGGSTYYADSVKGRFTISRDNAKNTVYLQLNSLKPEDTAVYNCARKSWPKEGRVDPGYDYWGQGTQVTVSS | low polyreactivity
3 | QVQLVESGGGLVQAGGSLRLSCAASGSIFVGNAMGWYIQAPGKERELVAAISRSGGSTYYADSVKGRFTISRDNAKNTVYLQMNSLKPEDTAVYYCAAVRKQGSGFDYWGQGTQVTVSS | high polyreactivity
4 | QVQLVESGGGLVQAGGSLRLSCAASGINTAGYAMGWYRQAPGKERELVAAISTSGTSTYYADSVKGRFTISRDNAQNTVYLQMNSLQPEDTAVYYCAYTNYYGVGYYYWGQGTLVTVSS | low polyreactivity
5 | QVQLGESGGGLVQAGGSLRLSCAASGLTFYLYVMGWYRQAPGTERELVAAISRRGGSTYYADSVKGRFTISRDNAKNTVYLQMNSLNPEDTAVYYCAASVYGTYRGIQYGYWGQGTQVTVSS | high polyreactivity
6 | QVQLVESGGGLVQAGGSLRLSCAASGFTFSVNAMGWYRQAPGKERELVAAITWSGGSTYYADSVKGRFTISRDNAKNTDYLQMNSLKPEDTAVFYCNARAQSSWGFWYDYWGQGTQVTVSS | high polyreactivity
7 | QVQLVESGGGLVQAGGSLRLSCAASGLIFDWYAMGWYRQAPGKERELVADISYSGGSTNYADSVKGRFTISRDNAKNTVYLQMNSLKPEDTAVYYCAADDYWTPFGYWGQGTQVTVSS | low polyreactivity
8 | QVQLVESGGGLVQAGGSLRLSCAASGSTFLRYAMGWYRQAPGKERELVATISRCDDGTYYADSVKGRFKISRDNEKNTVFLQMNSLKPEDNAVYYCDARSWYLYYYWGQGTQVTVSS | low polyreactivity
9 | QVQLVESGGGLVQAGGSLRLSCAATVSIFDRNAMGWYRQAPGKERELVAAISSVGSTNYADSVKGRFTISRDNAKNTVYLQMNSLKPEDTADYYCAAENEFIPSLFDYWGQGTQVTVSS | low polyreactivity
10 | QDQLVESGGALVQAGGSLLLSCAASGITFGDHAMGWYRQAPGKEWELFAAISWSGDRTFYADSVTGRFTISRDNAKNTVSLQMNSLNPADTAVYYCNAEIGWHNEGRLSTYDYWGQGTQVTVSS | low polyreactivity
11 | QVQLVESGGGLVQAGGSLRLSCAASGSIFSTYAIVWYRQAPGKERELVAAISVSGGRTYYADSVKGRFTISRDNAKYTVYLQMNSLKPEDTAVYYCNAYPFWRDYDYWGQGTQVTVSS | high polyreactivity
12 | QDQLVESGGGLVQAGGSLRLSCAASGSTFEYYAMGWYRQAPGKERELVAAITRRGGSTYYADSVKGRFTISRDNAKNTVYLQMNSLKPEDTAVYYCAAVPTQKSQRTHDYCGQGTQVTVSS | low polyreactivity
13 | QVQLVESGGGLGQAGGSLRLSCAASGSIFWGNAMGWYRQAPGKESELVACIRNSGTSTYYADSVKWRFTISRDNAKNTVYLKMNSLKPVDTAVYYCAAADGRQYSRYYWRGHDYWGQGTQVTVSS | low polyreactivity
14 | QVQLVESGGGLVQAGGSLRLSCAASGFTFQYYAMGWYRQAPGKERELVAAINWSGGRTYYADSVKGRFTISRDNAKNTVYLQMNSLKPEDTAVYYCAATRSFSGGYGYVSYDYWGQGTHVTVSS | high polyreactivity
15 | QVQLVESGGGLDQAGGSLRLSCAASGSTFLYYAMGWYRQAPGKEREFVARITTRVGRTYYADSVKGRFTISRDNAKNTVSLQMNSLKPEDTAVYYCAAVRISRTPRGLYEYWGQGTQVTVSS | high polyreactivity
16 | QVQLVESGGGLVQAGGSLRLSCAASGSIFPGYAMGWYRQAPGKERELVATITWSGGSTYYADSVKGRFTISRDNAKNTVYLQMNSLKPEDTAVYYCAADGVDRYLRTISYLYGYWGQGTQVTVSS | low polyreactivity
17 | QGQLVESGGGLVQAGGSLRLRCAASGFTFAVNTMGWYRQAPVKERELVAAITASGGSTHYADSVKGRFTISRDNAKNNVYLQMNSLKPEDTAVYYCAARPRLYQYYYWGQGTQVTVSS | high polyreactivity
18 | QVQLVESGGGLVQAGGSLRLSCAASGRIFRRYAMGWYRQAPGKERELVAAITRSGGSTYYADSVKGRFTISRDNAKNTVYLQMNSLKPEDTAVYYCNAPSSLGTDYDYWGQGTQVTVSS | high polyreactivity
19 | QVQLVESGGGLVQAGGSLRLSCAASGIIFSYNVMGWYRQAPGTERELVAGISRSGGSTYYADSVKGRFTISRDNAKNTVYLQMNSLKPEDTAVYYCNRVSYGPYYSYWSDFGYWGQGTQVTVSS | high polyreactivity
20 | QVQLVESVGGLDQAGGSLRLSCAASGSIFVGYAMGWYRQAPGKERELVAAITRSGVSTYYADSVKGRFTISRDNAKNTVYLQMNSLKPEDTAVYYCAADPTYRYWRVPWYEYDYWGQGTQVTVSS | low polyreactivity
21 | QDQLVESGGGLVQAGGSLRLSCAASGFIYFQYAMGWYRQAPGKERELVAAISGSGVTTYYADSVKGRFTISRDNAKYTVYLQMNSLKPEDTAVYYCNAALRWKYDWGQGTQVTVSS | low polyreactivity
22 | QVQLVESGGGLVQAGGSLRLSCAASGYIFVHYVMGWYRQAPGKERELVAAISSSGDRTYYADSVKGRFTISRDNAKNTVYLQMNSMKPEDTAVYYCAARYSDTSTNRYYYWGQGTQVTVSS | high polyreactivity

Row | Sequence | polyreactivity (PSR sort gate)
23 | QVQLVESRGGLVQAGGSLRLSCAASGRTVRRYAMGWYRQAAGKARELVASISRGSSTNYADSVKGRFTSSRDNAKNTGYLQMNSLKPEHTAVYYCAALGWSARYRYDYWGQGTQVTVSS | high polyreactivity
24 | QVQLVESGGGLVQAGGSLRLSCAASGRTFGSYAMGWYRQAPGKERELVAAIRYRGGSTYYADSVKGRFTISRDNAKNTVYLQMNSLKPEDTAVYYCAAKQGRYNIYSNYDYWGQGTQVTVSS | high polyreactivity
25 | QVQLGESGGGLVQAGGSLRLSCAASGSTRGYTMGWYRQAPGKERELVAVISYSGGRTYYADSVKGRFTISRDNAKNTVYLQMNSLKPEDTAVYYCNAYYYQFRGIRVSGGYWGQGTQVTVSS | high polyreactivity
26 | QVQLVESGGGLVQAGGSLRLSCAASGITFVGNARGWYRQAPGKERELVAGIRGNGGSTYYADSVKGRFTISRDNAKNTVYLQMNSLKPEDTAVYYCAAAAYYADFDYWGQGTQVTVSS | low polyreactivity
27 | QVQLVESGGGLVQAGGSLRLSCAASGYTFTGYAMGWYRQAPGKERELVAAITSIGGSTYYADSVKGRFTISRDNAKTTVYLQMNSLKPEDTAVYYCAKDALVIDGGGGYDYWGQGTQVTVSS | low polyreactivity
28 | QVQLVESGGGLVQAGGSLRLSCAASGSTFSSNAMGWYRQAPGKERELVAAISKRGGRTYYADSVKGRFTISRDNAKNTVYLQMNSLKPEDTAVYYCAKDYSSAVDYWGQGTQVTVSS | high polyreactivity
29 | QVQLVESGGGLVQAGGSLRLSCDASGFTIYRYAMGWYRQAPGKERELVAAISSGGGSTYYADSVKGRFTISRDNAKNTVYLQMYILKPEDNAVYYCNAQGFIYYWLRYDYWGQGTQVTVSS | high polyreactivity
30 | QVQLVESGGGLVQAGGSLRLSCAASGTFYYYAMGWYRQAPGKERELVAAIDYSGGSTYYADSVKGRFTISRDNAKNTVYLQMNSLKPEDTAVYYCAYVSVYDFEFWGQGTQVTVSS | high polyreactivity
31 | QVQLVESGGGLVQAGGSLRLSCAASGITLYRYAMGWYRLAPGKERELVADISSGGGTTYYADSVKGRFTISRDNAKNTVYLQMNSLKPEDTAVYYCAADYGFRYPLYEFWGQGTQVTVSS | low polyreactivity
32 | QVQLVESGGGLVQAGGSLRLSCAASGFTFSYNAMGWYRQAPGKERELVAVIKSSGGRTYYADSVKGRFTISRDNAKNTVYLQMNSLKPEDTAVYYCNAVYLQHRYRMYYWGQGTQVTVSS | high polyreactivity
33 | QVQLEESGRGLVQAGGSLRLSCAASGRTFLQYAMGWYRQAPRKERELVAANTTSGGDTYYADSVKGRFTISRDNAKNTVYLQMNSLKPEDTAVYYCNADFRVYIPHVPYFVDFDYWGQGTQVTVSS | low polyreactivity
34 | QVQLVESGGGLVQAGGSLRLSCAASGSIFGGYALGWYRQAPGKERELVAAISKTGGTTYYADSVKGRFTISRDNALNTVYLQMNSLKPEDTAVYYWNAPKRYYGSAYGYGYWGQGTQVTVSS | high polyreactivity
35 | QVQLVESGGGLVQAGGSLRLSCAASGRIFFWNALGWYRQAPGKEREFVATISWNDAITYYADSVKGRFTISRDNAKNTVYLQMNSLKPEDTAVYYCNVDPKIVFSFGYDYWGQGTQVTVSS | low polyreactivity
36 | QVQLVESGGGLVQAGGSLRLSCAASGFTFGYYAMGWYRQARGKERELVAAISSRGSGTYYADSVKGRFTISRDNAKNTVYLQMNSLKPEDTAVYYCARPAALLGYWGQGTQVTVSS | low polyreactivity
37 | QVQLVESGGGLVQAGGSLRFSCAASGFTFSHYAMGWYRQAPGQERELVAAITWSGGSTYYADSVKGRFTISRDNEKNTVYLQLNSVKPEDTAVYYCAAESYRDGVDYWGQGTQVTVSS | high polyreactivity
38 | QVQHVESGGGLVQAGGSLRLSCAASGFTFNLYAMGWYRQAPGKERELVAAINWSGGTYYADSVKGRFTISRDNAKNTVYLQMNSLKPEYTAVYYCAADFPYTPWSYHHHVWSPDFDYWGQGTQVTVSS | low polyreactivity
39 | QVQLVESGGGLVQAGGSLRLSCAASGRTFRYYVMGWYRPAPGKERELVASITSNGDSTYYADSVKGRFTISRDNAKNTVFLQWKSLKPEDTAVDYCAVRWRDYRGSYRGFEYWGQGSQVTVSS | high polyreactivity
40 | QVQLVESGGGLVQAGGSLRLSCAASGRNYVPYAMGWYRQAPGKERELVAALSNSGGSTYYADSVKGRFTISRDNAKNTGYLQRNSLKPEYTAVYFCAPDGRYAYGYNHWGQGTQVTGSS | low polyreactivity
41 | QVQRVESGGGLVQAAGSLRLSCAASGRTFIYYAKGWYRHEPGKERELVAGISRNGGRTYYADSVKGRFTISRDNAKNTVYLQMNSLKPEDTAVYYCNAYPPSRHDYCGQGTQVTVSS | high polyreactivity
42 | QVQLVESGGGLVQAGGSLRLSCAASGFISKYYAMGWSRQAPGKERELVASISRDGSTSYADSVKGRFTISRDNAKNTVYLQMNSLKPEDTAVYYCAAPRRWGDKYSFGYWGQGTQVTVSS | high polyreactivity
43 | QVQLVESGGGLVQEGGSLRLSCAASGRTFTTYAMGWYRQAPGKERELVAAISDTGGITYYADSVKGRFTISRDTAKNTVYIQMNSLKPEDTAVYYCNAESYGGDYDYWGQGTQVTVSS | low polyreactivity
